Test results from patent US20170219602A1.

Legend:
[1] = molecular target: IgE antibodies of serum A; assay: ImmunoCAP inhibition, inhibitor 100 µg/mL, horse dander extract solid phase
[2] = molecular target: IgE antibodies of serum B; assay: as above
[3] = molecular target: IgE antibodies of serum C; assay: as above
[4] = molecular target: IgE antibodies of serum D; assay: as above
[5] = molecular target: IgE antibodies of serum E; assay: as above
[6] = molecular target: IgE antibodies of serum A; assay: ImmunoCAP inhibition, inhibitor 100 µg/mL, competitor rEqu c s on solid phase
[7] = molecular target: IgE antibodies of serum B; assay: as above
[8] = molecular target: IgE antibodies of serum C; assay: as above
[9] = molecular target: IgE antibodies of serum D; assay: as above
[10] = molecular target: IgE antibodies of serum E; assay: as above
[11] = molecular target: IgE antibodies of serum A; assay: ImmunoCAP inhibition, inhibitor 100 µg/mL, competitor rFel d 1 on solid phase
[12] = molecular target: IgE antibodies of serum B; assay: as above
[13] = molecular target: IgE antibodies of serum C; assay: as above
[14] = molecular target: IgE antibodies of serum D; assay: as above
[15] = molecular target: IgE antibodies of serum E; assay: as above
[16] = molecular target: IgE antibodies of serum A; assay: ImmunoCAP inhibition, inhibitor 100 µg/ml, cat dander extract solid phase
[17] = molecular target: IgE antibodies of serum B; assay: as above
[18] = molecular target: IgE antibodies of serum C; assay: as above
[19] = molecular target: IgE antibodies of serum D; assay: as above
[20] = molecular target: IgE antibodies of serum E; assay: as above
[21] = molecular target: IgE antibodies of serum A; assay: ImmunoCAP inhibition, inhibitor 100 µg/ml, horse dander extract solid phase
[22] = molecular target: IgE antibodies of serum B; assay: as above
[23] = molecular target: IgE antibodies of serum C; assay: as above
[24] = molecular target: IgE antibodies of serum D; assay: as above
[25] = molecular target: IgE antibodies of serum E; assay: as above

Row | Inhibition (%) [1] | Inhibition (%) [2] | Inhibition (%) [3] | Inhibition (%) [4] | Inhibition (%) [5] | Inhibition (%) [6] | Inhibition (%) [7] | Inhibition (%) [8] | Inhibition (%) [9] | Inhibition (%) [10] | Inhibition (%) [11] | Inhibition (%) [12] | Inhibition (%) [13] | Inhibition (%) [14] | Inhibition (%) [15] | Binder | other results
1 | 96% | 93% | 96% | 96% | 98% | 60% | 62% | 62% | 59% | 76% | -7% | -3% | -2% | 5% | 7% | recombinant single chain Equ c s ab (protein) MDICPAVKEDVNIFLTGTPDDYVKKVSQYQRNPVILANAEKLKNCIDKKLTAEDKENALSVLEKIYSSDFCGGGGSGGGGSGGGGSCPSFYAVLGVLSLGSKTLLDTSLNLVNATEPEKVAMGKIQDCYNEAGVITKISDLIIMGTITTSPECISHALSTLTTDVQEGISKLNPLGRLEHHHHHH | –
2 | -10% | -2% | 0% | -6% | -10% | 12% | 5% | 7% | 8% | 4% | -5% | -4% | -6% | -2% | -3% | recombinant Equ c 15k (protein, from a related filing, horse) chain 1: ATCPAVATDIASFFLLPDSLFKLQLIKYQAPPEAKDATMQVKQCINEISAGDRYIITETLGKIVLQCGA chain 2: GSGCQLLEDVVEKTITAELSPAEYVEAVQEFIPDEATEKAAIQLKQCYLKQSNETLNDFRTMMNSMYNSAYCALF | Inhibition (%) [16]: -2%; Inhibition (%) [17]: 6%; Inhibition (%) [18]: -2%; Inhibition (%) [19]: 0%; Inhibition (%) [20]: 4%; Inhibition (%) [21]: -5%; Inhibition (%) [22]: -2%; Inhibition (%) [23]: 5%; Inhibition (%) [24]: 4%; Inhibition (%) [25]: 2%
